Experimental data: publication doi:10.1101/783266

Legend:
Assay in all cases: BLI
[1] = target: LRX1^ΔE-FLAG (Arabidopsis thaliana) (UniProt O65375)
[2] = target: LRX4^ΔE-FLAG (Arabidopsis thaliana) (UniProt Q9LHF1)
[3] = target: LRX5^ΔE-FLAG (Arabidopsis thaliana) (UniProt Q9SN46)

Measured: Kd

UniProt Q9SN46, sequence (Q9SN46 32-857, stated change not applied): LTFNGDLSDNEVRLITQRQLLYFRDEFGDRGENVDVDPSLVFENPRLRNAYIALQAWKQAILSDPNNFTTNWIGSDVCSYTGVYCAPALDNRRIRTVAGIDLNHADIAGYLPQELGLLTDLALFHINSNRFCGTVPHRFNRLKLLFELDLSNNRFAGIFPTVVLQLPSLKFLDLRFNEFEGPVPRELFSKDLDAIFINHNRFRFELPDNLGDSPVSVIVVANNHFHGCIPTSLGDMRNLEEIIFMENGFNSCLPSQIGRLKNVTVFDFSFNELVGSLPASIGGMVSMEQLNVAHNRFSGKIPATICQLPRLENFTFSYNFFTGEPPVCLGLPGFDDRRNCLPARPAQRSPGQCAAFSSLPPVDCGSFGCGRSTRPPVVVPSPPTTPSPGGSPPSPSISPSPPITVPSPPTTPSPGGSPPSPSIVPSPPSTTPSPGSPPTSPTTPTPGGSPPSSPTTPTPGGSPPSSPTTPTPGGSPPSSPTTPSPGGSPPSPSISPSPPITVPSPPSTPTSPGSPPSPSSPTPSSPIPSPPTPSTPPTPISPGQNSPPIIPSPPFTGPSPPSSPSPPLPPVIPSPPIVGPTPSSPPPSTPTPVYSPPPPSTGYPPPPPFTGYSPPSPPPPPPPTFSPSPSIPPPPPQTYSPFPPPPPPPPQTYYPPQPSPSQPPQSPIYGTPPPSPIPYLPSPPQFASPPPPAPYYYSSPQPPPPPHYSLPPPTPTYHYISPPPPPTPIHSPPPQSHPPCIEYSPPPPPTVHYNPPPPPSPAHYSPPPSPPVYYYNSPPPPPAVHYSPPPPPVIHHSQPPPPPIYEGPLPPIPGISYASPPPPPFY
UniProt Q9LHF1, sequence (Q9LHF1 26-494, stated change not applied): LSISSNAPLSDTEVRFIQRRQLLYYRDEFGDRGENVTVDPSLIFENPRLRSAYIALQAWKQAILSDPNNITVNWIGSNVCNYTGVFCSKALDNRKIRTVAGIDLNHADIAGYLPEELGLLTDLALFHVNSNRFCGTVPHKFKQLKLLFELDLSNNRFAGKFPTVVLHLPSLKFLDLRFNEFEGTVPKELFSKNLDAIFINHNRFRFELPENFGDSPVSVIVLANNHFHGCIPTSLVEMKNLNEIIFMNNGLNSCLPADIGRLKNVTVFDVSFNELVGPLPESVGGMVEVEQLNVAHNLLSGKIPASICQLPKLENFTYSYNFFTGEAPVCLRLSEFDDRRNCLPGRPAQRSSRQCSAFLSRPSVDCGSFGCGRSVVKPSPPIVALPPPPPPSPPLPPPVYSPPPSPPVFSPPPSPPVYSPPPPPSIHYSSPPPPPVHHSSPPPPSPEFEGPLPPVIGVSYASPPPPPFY
UniProt O65375, sequence (O65375 27-744, stated change not applied): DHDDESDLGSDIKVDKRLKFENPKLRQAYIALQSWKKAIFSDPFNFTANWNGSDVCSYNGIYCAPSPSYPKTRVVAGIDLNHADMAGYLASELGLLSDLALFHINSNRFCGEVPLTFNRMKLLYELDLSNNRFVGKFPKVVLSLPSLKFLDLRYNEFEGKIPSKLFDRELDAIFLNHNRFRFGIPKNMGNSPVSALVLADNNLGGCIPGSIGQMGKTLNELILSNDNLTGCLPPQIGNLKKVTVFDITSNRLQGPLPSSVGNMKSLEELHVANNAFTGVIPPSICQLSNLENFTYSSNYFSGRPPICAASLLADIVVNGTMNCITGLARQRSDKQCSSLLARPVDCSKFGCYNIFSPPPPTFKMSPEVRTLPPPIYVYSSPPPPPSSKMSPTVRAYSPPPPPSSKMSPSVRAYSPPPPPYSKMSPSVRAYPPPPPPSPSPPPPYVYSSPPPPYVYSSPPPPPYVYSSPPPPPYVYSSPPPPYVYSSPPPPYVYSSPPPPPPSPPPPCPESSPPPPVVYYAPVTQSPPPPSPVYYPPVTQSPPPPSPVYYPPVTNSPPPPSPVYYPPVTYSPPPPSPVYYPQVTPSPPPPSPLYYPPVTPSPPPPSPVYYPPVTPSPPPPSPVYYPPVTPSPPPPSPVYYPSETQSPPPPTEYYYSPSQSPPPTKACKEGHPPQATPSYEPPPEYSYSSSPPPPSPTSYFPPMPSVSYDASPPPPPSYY

ATTKYISYQSLKRNSVPCSRRGASYYNCQNGAQANPYSRGCSKIARCRS [RALF1, in vitro synthesized peptide]
5 nM: all assays above
